The target of the assay is T1, wild-type CXCL12 (Homo sapiens (Human), UniProt P48061 22-89).
T1 construct: also called CXCL12WT; WT
Kind of assay: 125I-CXCL12 displacement from CXCR4. How it is done:
A) The affinity of CXCL12 variants for CXCR4 was determined by ¹²⁵I-CXCL12 displacement. […] C) Intracellular calcium mobilization of cells stimulated by 10 nM CXCL12 variants was measured in the presence or absence of the Gαi inhibitor, pertussis toxin (PTX). From Drury, PNAS, 2011.

T1 sequence (P48061 22-89 limits assumed): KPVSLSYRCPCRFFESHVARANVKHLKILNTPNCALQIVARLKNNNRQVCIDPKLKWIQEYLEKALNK

B1: CXC chemokine receptor 4 (CXCR4) (receptor, UniProt P61073 1-352, looked up)
chain: MEGISIYTSDNYTEEMGSGDYDSMKEPCFREENANFNKIFLPTIYSIIFLTGIVGNGLVILVMGYQKKLRSMTDKYRLHLSVADLLFVITLPFWAVDAVANWYFGNFLCKAVHVIYTVNLYSSVLILAFISLDRYLAIVHATNSQRPRKLLAEKVVYVGVWIPALLLTIPDFIFANVSEADDRYICDRFYPNDLWVVVFQFQHIMVGLILPGIVILSCYCIIISKLSHSKGHQKRKALKTTVILILAFFACWLPYYIGISIDSFILLEIIKQGCEFENTVHKWISITEALAFFHCCLNPILYAFLGAKFKTSAQHALTSVSRGSSLKILSKGKRGGHSSVSTESESSSFHSS
The Kd is a measure of binding affinity in units of concentration. A high value points to lower affinity. Molecule B1 displayed a dissociation constant Kd of 25 nM.

The record behind these values is patent US20210162009A1 (MEDICAL COLLEGE OF WISCONSIN, published 2021).
